The values that follow come from patent publication US20240317858A1 (Adimab, published 2024).

Changes are numbered by the printed parent chain.

First the molecules themselves.
B1: Antibody No. A001 (ADI-26906) IgG1 (antibody, V domains shown)
VH: QVQLVQSGAEVKKPGASVKVSCKASGFNIKDYYMHWVRQAPGQRLEWMGWIDLENANTIYDAKFQGRVTITRDTSASTAYMELSSLRSEDTAVYYCARDAYGRYFYDVWGQGTLVTVSS
VL: DIVMTQSPDSLAVSLGERATINCKSSQSLLNARTGKNYLAWYQQKPGQPPKLLIYWASTRESGVPDRFSGSGSGTDFTLTISSLQAEDVAVYYCKQSYSRRTFGGGTKVEIK
notes: IgG1, CHO-produced
B2: Antibody No. V002 (ADI-67445) IgG1 (antibody, V domains shown)
VH: B1 VH with N57E, G66D, V108E
VL: B1 VL
notes: IgG1, CHO-produced
B3: Antibody No. V008 (ADI-70325) IgG1 (antibody, V domains shown)
VH: B1 VH with M48I, N57E, I59V, G66D
VL: B1 VL with T5S, E61S, K95V, S99F
notes: IgG1, CHO-produced
B4: Antibody No. V011 (ADI-70328) IgG1 (antibody, V domains shown)
VH: B1 VH with K30D, M48I, A56D, I59V
VL: B1 VL with T5S, E61S, K95V, S99F
notes: IgG1, CHO-produced
B5: Antibody No. V005 (ADI-67448) IgG1 (antibody, V domains shown)
VH: B1 VH with K30D, A56D
VL: B1 VL
notes: IgG1, CHO-produced; VH as printed is identical to that of V004
B6: Antibody No. V009 (ADI-70326) IgG1 (antibody, V domains shown)
VH: B1 VH with N28D, M48I, D52E, N57D, I59V
VL: B1 VL with T5S, E61S, K95V, S99F
notes: IgG1, CHO-produced
B7: Antibody No. V012 (ADI-70329) IgG1 (antibody, V domains shown)
VH: B1 VH with I29D, M48I, N57E, I59V, G66D
VL: B1 VL with T5S, E61S, K95V, S99F
notes: IgG1, CHO-produced
B8: Antibody No. V006 (ADI-67449) IgG1 (antibody, V domains shown)
VH: B1 VH with I29D, N57E, G66D
VL: B1 VL
notes: IgG1, CHO-produced
B9: Antibody No. A002 (ADI-50024) IgG1 (antibody, V domains shown)
VH: B1 VH with M48I, I59V
VL: B1 VL with T5S, E61S, K95V, S99F
notes: IgG1, CHO-produced
B10: Antibody No. V013 (ADI-70330) IgG1 (antibody, V domains shown)
VH: B1 VH with K30D, M48I, I59V, Y60D
VL: B1 VL with T5S, E61S, K95V, S99F
notes: IgG1, CHO-produced
B11: Antibody No. V003 (ADI-67446) IgG1 (antibody, V domains shown)
VH: B1 VH with N28D, D52E, N57D
VL: B1 VL
notes: IgG1, CHO-produced
B12: Antibody No. V007 (ADI-67450) IgG1 (antibody, V domains shown)
VH: B1 VH with K30D, Y60D
VL: B1 VL
notes: IgG1, CHO-produced
B13: Antibody No. V010 (ADI-70327) IgG1 (antibody, V domains shown)
VH: B1 VH with N28D, M48I, D52E, A56D, N57D, I59V
VL: B1 VL with T5S, E61S, K95V, S99F
notes: IgG1, CHO-produced

T2 sequence (Q95LI5 22-198): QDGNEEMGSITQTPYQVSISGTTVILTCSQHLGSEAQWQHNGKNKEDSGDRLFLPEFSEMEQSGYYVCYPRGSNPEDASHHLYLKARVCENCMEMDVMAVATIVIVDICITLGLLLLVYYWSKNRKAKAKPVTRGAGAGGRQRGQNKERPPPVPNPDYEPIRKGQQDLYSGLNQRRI

For one assay, the target named is T1, Human CD3 on CD3+ Jurkat cells (human, UniProt P07766 23-207).
T1 construct: whole, on cells; Target is the endogenous CD3 complex on cells; also called Human CD3+ Jurkat cells
T1 sequence (P07766 23-207): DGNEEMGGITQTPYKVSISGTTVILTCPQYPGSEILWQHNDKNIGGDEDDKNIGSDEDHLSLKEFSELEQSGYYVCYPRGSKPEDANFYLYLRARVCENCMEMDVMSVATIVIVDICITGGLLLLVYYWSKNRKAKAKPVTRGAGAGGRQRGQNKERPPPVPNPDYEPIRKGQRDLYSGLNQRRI
The experiment in a line: flow cytometry, 100 nM IgG. The procedure: (§1) Specificity of the anti-CD3 antibodies for human CD3+ Jurkat cells and Cynomolgus monkey HSC-F cells was determined using a FACS cell binding assay. Briefly, cells were thawed and washed with cold PBSF buffer (PBS+0.1% BSA, pH 7.4). About 200,000 cells were aliquoted per well of a 96-well plate and pelleted by centrifugation (5 minutes at 500×g). The cells were washed and resuspended in 100 μl PBSF with CHO-produced anti-CD3 IgG antibody (100 nM). The mixture (cells+antibody) was incubated for 20 minutes on ice, then washed twice with PBSF. Cells were resuspended in 50 μl of propidium iodide (1:500 dilution) and anti-human IgG-RPE (1:100 dilution) prepared in PBSF, then incubated for 20 minutes on ice in the dark before cells were washed twice with PBSF. Binding was analyzed on FACS Canto II. Also shown are results using cells without CD3 [CHO-S cells, Jurkat CD3 knockout (CD3−) cells, and HEK cells] for comparison, including results with Jurkat CD3-cells combined with anti-CD3 antibody Fab fragments (100 nM).
Background: Flow cytometry measures light scatter and fluorescence of single cells or particles in a stream.
Turning to B1, the MFI is 3150 MFI.

Molecule B2 registered an MFI of 3040 MFI.

In turn, B3 had an MFI of 3200 MFI.

Molecule B4 gave an MFI of 3000 MFI.

In turn, B5 displayed an MFI of 3150 MFI.

As to B6, the MFI was 3070 MFI.

Consider B7, for which the MFI came out at 3020 MFI.

B8 displayed an MFI of 3040 MFI.

B9 showed an MFI of 3410 MFI.

For the molecule B10, the MFI is 2950 MFI.

Turning to B11, the MFI is 3020 MFI.

B12 gave an MFI of 2930 MFI.

Regarding B13, the MFI was 2910 MFI.

The next assay has as its target T2, Cynomolgus CD3 on HSC-F cells (cynomolgus, UniProt Q95LI5 22-198).
T2 construct: whole, on cells; Target is the endogenous CD3 complex on cells; also called Cyno CD3 HSC-F cells; Cyno CD3+ HSC-F cells
The assay is described as follows: flow cytometry, 100 nM IgG. The procedure: as §1
B1: the MFI amounted to 6050 MFI.

As to B2, the MFI stood at 5960 MFI.

B3 displayed an MFI of 6400 MFI.

For the molecule B4, the MFI amounted to 5910 MFI.

The molecule B5 yielded an MFI of 5940 MFI.

Take B6: the MFI came to 6230 MFI.

As for B7, the MFI came to 5800 MFI.

In the case of B8, the MFI amounted to 5750 MFI.

B9 showed an MFI of 6310 MFI.

On to B10, for which the MFI was found to be 5740 MFI.

On to B11, for which the MFI was found to be 6010 MFI.

As for B12, the MFI amounted to 5490 MFI.

Molecule B13 had an MFI of 5860 MFI.

A further assay deals with T1, Human CD3 on CD3+ Jurkat cells. The assay is described as follows: flow cytometry, 100 nM IgG1, pH 7.4. The method, then:
(§2) Cell binding assays. CD3+ human Jurkat cells (ATCC) and CHO-S cells (Invitrogen/ThermoFisher) were thawed and washed with cold PBSF buffer, pH 7.4 (PBS+0.1% BSA, pH 7.4). About 200,000 cells were aliquoted per well of a 96-well plate (FACS Assay Plate VWR BD 353263) and pelleted by centrifugation (5 minutes at 500×g). The cells were washed with either PBSF pH 7.4 or PBSF pH 6.0 (PBS+0.1% BSA, pH 6.0), and then resuspended in 100 μl in either PBSF pH 7.4 or PBSF pH 6.0 with IgG1 antibody (100 nM) produced in yeast as described above or in CHO cells. The mixture (cells+antibody) was incubated for 20 minutes on ice, then washed twice with either PBSF pH 7.4 or PBSF pH 6.0. Cells were resuspended in 50 μl of propidium iodide (Roche; 1:500 dilution) and anti-human IgG-RPE (Southern Biotech; 1:100 dilution) prepared in either PBSF pH 7.4 or PBSF pH 6.0, then incubated for 20 minutes on ice in the dark before cells were washed twice with either PBSF pH 7.4 or PBSF pH 6.0. Binding was analyzed on FACS Canto II.
(§3) Anti-CD3 antibodies A001-A005, V002, V004, V007, V009, V010, V013, and V014-V019 were produced as IgG1s in CHO cells, and binding to human CD3+ Jurkat cells and cynomolgus CD3+ HSC-F cells at pH 7.4 was analyzed by flow cytometry as described in Example 2. NCB (Normalized Cell Binding) values were calculated based on control and sample MFI values as NCB={(Sample MFI)−(Secondary only MFI)}/(Secondary only MFI).
Turning to B1, the “NCB (Normalized Cell Binding)” value is 289.

On to B2, for which the “NCB (Normalized Cell Binding)” value worked out at 320.

Turning to B6, the “NCB (Normalized Cell Binding)” value turned out to be 309.

In the case of B9, the “NCB (Normalized Cell Binding)” value came to 366.

On to B10, for which the “NCB (Normalized Cell Binding)” value is 295.

Regarding B12, the “NCB (Normalized Cell Binding)” value worked out at 287.

Consider B13, for which the “NCB (Normalized Cell Binding)” value worked out at 298.

For a further assay, the target named is T2, Cynomolgus CD3 on HSC-F cells. The experiment in a line: flow cytometry, 100 nM IgG1, pH 7.4. The procedure:
as §2, §3
Regarding B1, the “NCB (Normalized Cell Binding)” value came to 400.

Turning to B2, the “NCB (Normalized Cell Binding)” value worked out at 388.

As to B6, the “NCB (Normalized Cell Binding)” value was found to be 396.

B9: the “NCB (Normalized Cell Binding)” value was determined as 417.

B10: the “NCB (Normalized Cell Binding)” value was determined as 374.

For the molecule B12, the “NCB (Normalized Cell Binding)” value is 368.

Take B13: the “NCB (Normalized Cell Binding)” value stood at 378.
